From publication PMC6787221

Experiments:
[1] = biological target: STAM2 UIM-SH3 with the linker shortened by 14 amino acids (human); experiment: NMR titration; 1H-15N HSQC chemical shift perturbation of 15N-labelled US-WT, US-Δ1, US-Δ2 upon addition of unlabelled Lys63-Ub2 until saturation; 15 °C, 20 mM sodium phosphate pH 6.8, 10% D2O, 0.02% NaN3; 2:1 model (each domain interacts with one unit of Lys63-Ub2)
[2] = biological target: STAM2 UIM-SH3 with the linker shortened by 7 amino acids (human); experiment: as above

Lys63-linked diubiquitin (from UniProt P0CG48 1-76) (complex)
KD at the SH3 domain [1]: 483 µM
KD at the SH3 domain [2]: 253 µM
